Assay results taken from publication PMC11259703, “A small-molecule allele-selective transcriptional inhibitor of the MIF immune susceptibility locus” (The Journal of Biological Chemistry, 2024).

What was measured:
[1] = system: ICBP90 413-618 (SRA domain); experiment: AlphaScreen; settings: IC50 of the small-molecule inhibitor CMFT, not a DNA affinity; EMSA: LightShift kit buffer, poly(dI-dC), 20 min at 22 C, 6% native PAGE; ELISA: 10 mM Tris-HCl pH 7.5, 50 mM KCl, 1 mM DTT; AlphaScreen: same plus 0.01% …
ICBP90 (UHRF1) = biological target: T1, ICBP90 (UHRF1) (Homo sapiens, UniProt Q96T88); experiment: AlphaScreen inhibition of purified ICBP90 SRA domain binding to biotinylated MIF promoter CATT8 DNA; confirmed by EMSA dose response
T1 construct: SET and RING finger-associated (SRA) domain, amino acids 413 to 618 (ICBP90^413-618), C-terminal 6xHis
T1 sequence (Q96T88 413-618): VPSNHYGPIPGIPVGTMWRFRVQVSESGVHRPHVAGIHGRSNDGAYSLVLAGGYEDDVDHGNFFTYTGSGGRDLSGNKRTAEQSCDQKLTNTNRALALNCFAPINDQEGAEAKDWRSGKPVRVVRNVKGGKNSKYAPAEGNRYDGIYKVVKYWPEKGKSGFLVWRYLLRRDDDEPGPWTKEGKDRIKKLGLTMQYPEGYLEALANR

Compound | IC50 [1] | IC50 (ICBP90 (UHRF1))
MIF promoter CATT8 (-794 CATT8), 5'-biotin | 490 nM | –
COC(=O)c1ccc(O)c2nc3c(C=O)c(O)cc(O)c3nc12 [compound 3, 1-carbomethoxy-5-formyl-4,6,8-trihydroxyphenazine] | – | 490 nM
